Experimental data reported in PMC12346409, “Amphiphilic Oligonucleotide Derivatives as a Tool to Study DNA Repair Proteins”.

Experiments:
Ku antigen (Ku70/Ku80) = Ku antigen (Ku70/Ku80) (UniProt P12956;P13010 1-609;1-732); test: photo-cross-linking; 100 nM DNA, 100 nM protein; Ku70 and Ku80 labelled; EMSA: 50 mM Tris-HCl pH 8.0, 20 mM NaCl, 0.25 mM EDTA, 5% glycerol, 0.025% NP-40, 37 °C 20 min; 8% PAAG, 0.5x TBE, 10 °C; details: copies: 1;1; nicked duplex, blunt ends, strands 1 and 2 paired to strand 3
PARP1 [1] = biological target: T1, PARP1 (human, UniProt P09874 1-1014); test: photo-cross-linking; 100 nM DNA, 100 nM protein; EMSA: 50 mM Tris-HCl pH 8.0, 20 mM NaCl, 0.25 mM EDTA, 5% glycerol, 0.025% NP-40, 37 °C 20 min; 8% PAAG, 0.5x TBE, 10 °C; details: protein: recombinant; nicked duplex, blunt ends, strands 1 and 2 paired to strand 3
PARP2 = PARP2 (human, UniProt Q9UGN5 1-583); test: photo-cross-linking; no NAD+; 200 nM PARP2, 100 nM DNA; EMSA: 50 mM Tris-HCl pH 8.0, 20 mM NaCl, 0.25 mM EDTA, 5% glycerol, 0.025% NP-40, 37 °C 20 min; 8% PAAG, 0.5x TBE, 10 °C; details: protein: recombinant; label: 5'-32P; 5' overhang 4 nt on strand 1; other end blunt
PARP1 [2] = biological target: T1, PARP1; test: photo-cross-linking; no NAD+; 200 nM PARP1, 100 nM DNA; EMSA: 50 mM Tris-HCl pH 8.0, 20 mM NaCl, 0.25 mM EDTA, 5% glycerol, 0.025% NP-40, 37 °C 20 min; 8% PAAG, 0.5x TBE, 10 °C; details: protein: recombinant; label: 5'-32P; 5' overhang 4 nt on strand 1; other end blunt
PARP3 = biological target: T2, PARP3 (UniProt Q9Y6F1 1-533); test: EMSA; 10 nM DNA, up to 10-fold PARP3 excess; EMSA: 50 mM Tris-HCl pH 8.0, 20 mM NaCl, 0.25 mM EDTA, 5% glycerol, 0.025% NP-40, 37 °C 20 min; 8% PAAG, 0.5x TBE, 10 °C; details: protein: recombinant; label: 5'-32P on O1-Pho strand; 5' overhang 5 nt on strand 1 as printed; other end blunt
T2 sequence: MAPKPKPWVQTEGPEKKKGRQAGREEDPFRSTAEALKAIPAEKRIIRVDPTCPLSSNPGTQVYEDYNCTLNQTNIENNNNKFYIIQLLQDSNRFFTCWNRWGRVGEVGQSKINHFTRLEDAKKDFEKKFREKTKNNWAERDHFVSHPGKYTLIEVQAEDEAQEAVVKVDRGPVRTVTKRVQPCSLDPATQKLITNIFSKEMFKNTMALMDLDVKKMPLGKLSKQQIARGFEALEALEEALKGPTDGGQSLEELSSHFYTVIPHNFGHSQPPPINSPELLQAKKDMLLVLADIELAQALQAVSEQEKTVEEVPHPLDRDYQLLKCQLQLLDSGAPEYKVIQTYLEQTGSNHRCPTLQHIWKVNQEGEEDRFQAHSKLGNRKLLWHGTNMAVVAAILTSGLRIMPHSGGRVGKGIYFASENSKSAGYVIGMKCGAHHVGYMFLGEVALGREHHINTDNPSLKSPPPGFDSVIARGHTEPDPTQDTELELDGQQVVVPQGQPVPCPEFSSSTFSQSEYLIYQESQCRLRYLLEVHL

T1 sequence (P09874 whole entry): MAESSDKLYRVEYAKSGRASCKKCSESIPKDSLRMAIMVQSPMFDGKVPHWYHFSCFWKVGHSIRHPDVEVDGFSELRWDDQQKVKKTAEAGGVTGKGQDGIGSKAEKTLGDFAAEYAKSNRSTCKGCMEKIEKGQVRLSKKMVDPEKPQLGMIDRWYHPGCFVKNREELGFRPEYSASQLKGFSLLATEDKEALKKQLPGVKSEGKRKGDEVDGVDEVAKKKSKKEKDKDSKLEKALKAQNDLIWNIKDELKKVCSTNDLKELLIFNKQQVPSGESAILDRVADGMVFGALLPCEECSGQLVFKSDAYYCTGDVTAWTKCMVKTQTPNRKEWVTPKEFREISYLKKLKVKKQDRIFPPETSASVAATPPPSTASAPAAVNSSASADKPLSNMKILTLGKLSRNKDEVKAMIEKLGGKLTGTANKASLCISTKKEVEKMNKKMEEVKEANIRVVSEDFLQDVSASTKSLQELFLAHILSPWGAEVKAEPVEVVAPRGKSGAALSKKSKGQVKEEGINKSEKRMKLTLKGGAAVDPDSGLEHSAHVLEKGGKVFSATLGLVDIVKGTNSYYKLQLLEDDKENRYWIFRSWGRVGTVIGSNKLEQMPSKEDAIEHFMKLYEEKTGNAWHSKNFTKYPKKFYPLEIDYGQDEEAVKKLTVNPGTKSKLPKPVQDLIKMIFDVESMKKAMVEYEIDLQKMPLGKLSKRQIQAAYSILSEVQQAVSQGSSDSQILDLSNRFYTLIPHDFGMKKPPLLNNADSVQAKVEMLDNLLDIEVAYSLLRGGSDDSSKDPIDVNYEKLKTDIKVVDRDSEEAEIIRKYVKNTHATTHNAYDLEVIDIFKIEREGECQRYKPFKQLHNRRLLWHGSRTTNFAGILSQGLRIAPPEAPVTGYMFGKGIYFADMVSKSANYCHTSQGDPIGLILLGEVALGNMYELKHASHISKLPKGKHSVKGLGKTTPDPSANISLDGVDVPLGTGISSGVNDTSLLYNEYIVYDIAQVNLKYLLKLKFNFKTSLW
Sequence of Ku antigen (Ku70/Ku80) (P12956 whole entry, chain 1 of 2): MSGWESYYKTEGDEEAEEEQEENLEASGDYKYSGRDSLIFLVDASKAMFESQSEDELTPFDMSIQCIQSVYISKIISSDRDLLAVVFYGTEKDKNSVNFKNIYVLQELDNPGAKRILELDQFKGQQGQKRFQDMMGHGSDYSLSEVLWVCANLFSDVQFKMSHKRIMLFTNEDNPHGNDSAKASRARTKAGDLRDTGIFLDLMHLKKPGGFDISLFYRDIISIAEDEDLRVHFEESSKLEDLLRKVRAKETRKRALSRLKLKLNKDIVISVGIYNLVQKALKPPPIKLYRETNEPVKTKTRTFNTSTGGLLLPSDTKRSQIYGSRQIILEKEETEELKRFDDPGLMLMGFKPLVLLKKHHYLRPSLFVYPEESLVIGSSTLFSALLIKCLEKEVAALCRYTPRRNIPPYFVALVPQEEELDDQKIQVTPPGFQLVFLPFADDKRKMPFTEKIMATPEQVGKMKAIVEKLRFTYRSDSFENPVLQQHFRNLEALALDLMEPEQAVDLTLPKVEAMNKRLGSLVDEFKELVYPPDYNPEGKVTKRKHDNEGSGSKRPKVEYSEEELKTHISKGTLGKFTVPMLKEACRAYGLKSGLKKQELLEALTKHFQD
Sequence of Ku antigen (Ku70/Ku80) (P13010 whole entry, chain 2 of 2): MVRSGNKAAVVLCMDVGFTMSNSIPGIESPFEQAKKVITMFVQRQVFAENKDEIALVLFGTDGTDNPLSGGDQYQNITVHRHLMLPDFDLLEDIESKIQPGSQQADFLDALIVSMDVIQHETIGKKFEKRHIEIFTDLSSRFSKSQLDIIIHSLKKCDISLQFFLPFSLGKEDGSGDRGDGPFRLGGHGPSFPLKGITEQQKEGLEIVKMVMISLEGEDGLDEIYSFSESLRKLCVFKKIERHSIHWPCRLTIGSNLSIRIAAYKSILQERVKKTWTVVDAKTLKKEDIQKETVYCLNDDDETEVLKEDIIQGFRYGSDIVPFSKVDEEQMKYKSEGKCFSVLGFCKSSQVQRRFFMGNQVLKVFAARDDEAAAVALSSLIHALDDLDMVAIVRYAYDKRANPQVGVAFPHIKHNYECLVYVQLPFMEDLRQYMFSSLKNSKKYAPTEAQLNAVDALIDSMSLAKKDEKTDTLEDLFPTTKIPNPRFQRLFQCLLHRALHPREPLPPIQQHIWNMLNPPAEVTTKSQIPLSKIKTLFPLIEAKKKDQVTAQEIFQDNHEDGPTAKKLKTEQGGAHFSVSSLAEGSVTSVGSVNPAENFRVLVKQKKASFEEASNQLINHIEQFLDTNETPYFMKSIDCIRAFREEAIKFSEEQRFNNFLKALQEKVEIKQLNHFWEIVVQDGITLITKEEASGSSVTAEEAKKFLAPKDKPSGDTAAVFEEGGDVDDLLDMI
Sequence of PARP2 (Q9UGN5 whole entry): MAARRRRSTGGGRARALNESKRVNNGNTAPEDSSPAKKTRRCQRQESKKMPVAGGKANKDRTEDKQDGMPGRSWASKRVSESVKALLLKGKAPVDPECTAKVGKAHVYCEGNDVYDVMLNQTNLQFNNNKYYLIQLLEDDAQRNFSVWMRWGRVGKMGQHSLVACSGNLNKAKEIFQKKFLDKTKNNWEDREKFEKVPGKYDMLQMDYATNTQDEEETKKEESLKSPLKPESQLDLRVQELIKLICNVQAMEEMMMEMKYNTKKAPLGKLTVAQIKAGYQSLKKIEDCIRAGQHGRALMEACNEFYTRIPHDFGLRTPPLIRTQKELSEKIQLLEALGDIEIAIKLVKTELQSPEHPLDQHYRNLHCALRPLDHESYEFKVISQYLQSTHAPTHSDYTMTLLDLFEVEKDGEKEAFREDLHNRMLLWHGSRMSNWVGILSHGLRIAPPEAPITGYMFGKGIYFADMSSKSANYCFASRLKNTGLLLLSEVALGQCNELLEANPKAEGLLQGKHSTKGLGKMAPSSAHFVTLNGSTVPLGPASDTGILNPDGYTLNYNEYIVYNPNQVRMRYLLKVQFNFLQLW

B1: Pho-dRP (dsDNA)
DNA 1: GGCGACTAAGCCGGGC
DNA 2: AACGCCAGGGCCTCCC
DNA 3: GGGAGGCCCTGGCGTTGCCCGGCTTAGTCGCC
modifications: 3'-terminal FAP-dCMP on strand 1; 5'-dRP on strand 2
- binding result (Ku antigen (Ku70/Ku80)): binds
- binding result (PARP1 [1]): binds

B2: Pho-DNA-R (dsDNA)
DNA 1: TCCTGACATACTTGATACTTAGACATTCTT
DNA 2: AAGAATGTCTAAGTATCAAGTATGTC
modifications: 3'-terminal FAP-dCMP (photoactivatable C) on strand 2
- binding result (PARP2): binds
- binding result (PARP1 [2]): binds

B3: DNA-R (EMSA, O-R/O1-Pho) (dsDNA)
DNA 1: TCCTGACATACTTGATACTTAGACATTCTT
DNA 2: AAGAATGTCTAAGTATCAAGTATGT
- binding result (PARP3): no binding
